The source of these data is patent publication WO2007059715A2 (dated 2007).

The target of the experiment is chimeric protein PMEC1-His6 (dengue 2 virus, strain 1409, genotype …). In words: dot blot, 10 μg protein spotted, antibody 10 μg/ml.

B1: monoclonal antibody 4G2 (antibody, V domains shown)
VH: EVQLQQSGPELVKPGTSVKISCKTSGYTFTEYTIHWVKQSHGKSLAWIGGIDPNSGGTNYSPNFKGKATLTVDKSSSTAYMDLRSLSSEDSAVYFCARIYHYDGYFDVWGAGTAVTVSS
VL: NIVMTQSPKSMSMSVGERVTLTCKASENVVTYVSWYQQKPEQSPKLLIYGASNRYTGVPDRFTGSGSATDFTLTISSVQAEDLADYHCGQGYSYPYTFGGGTKLEIK
notes: also called AcM 4G2; Mab 4G2
Turning to B1, the binding result is on record as “binds”.
